In publication PMC8611094, “RNA G-quadruplex structures control ribosomal protein production”:

Target: DDX3X (UniProt O00571 1-662)
Experiment: ELISA; ELISA performed as in Zyner et al. (ref 43); buffer, salt, pH and temperature not given in the material
Settings: protein: commercial; tags: FLAG; label: 5' biotin; intramolecular G4

Chain of DDX3X (O00571 whole entry): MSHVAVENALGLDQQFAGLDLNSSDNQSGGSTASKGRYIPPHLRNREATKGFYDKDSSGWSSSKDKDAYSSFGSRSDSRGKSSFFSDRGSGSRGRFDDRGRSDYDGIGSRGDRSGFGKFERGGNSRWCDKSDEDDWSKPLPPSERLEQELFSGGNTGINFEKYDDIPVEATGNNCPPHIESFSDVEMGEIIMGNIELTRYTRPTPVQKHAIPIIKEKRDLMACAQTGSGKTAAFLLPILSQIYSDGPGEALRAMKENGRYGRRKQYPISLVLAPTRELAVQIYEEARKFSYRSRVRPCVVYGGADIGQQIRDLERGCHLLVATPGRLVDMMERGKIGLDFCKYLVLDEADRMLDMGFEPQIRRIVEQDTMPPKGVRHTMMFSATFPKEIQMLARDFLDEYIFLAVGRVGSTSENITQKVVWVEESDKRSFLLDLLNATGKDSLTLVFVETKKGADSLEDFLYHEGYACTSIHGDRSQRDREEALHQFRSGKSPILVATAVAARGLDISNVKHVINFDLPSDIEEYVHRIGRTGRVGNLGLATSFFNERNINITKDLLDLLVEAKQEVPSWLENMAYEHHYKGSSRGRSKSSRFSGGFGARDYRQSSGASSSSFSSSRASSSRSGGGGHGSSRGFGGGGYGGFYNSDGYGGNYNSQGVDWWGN

In the case of UGUGGGAGGGGCGGGUCUGGGUGC (structured_RNA) [NRAS G4], the Kd is reported as 18 nM.
